Reference: paper PMC3315485

What was measured:
Test in all cases: MITOMI
[1] = system: MarA wild type (WQR) (Escherichia coli); settings: MITOMI at 295 K; buffer, salt and pH not given in the material
[2] = system: MarA RQR (Escherichia coli); settings: MITOMI at 295 K; buffer, salt and pH not given in the material
[3] = system: MarA RTR (Escherichia coli); settings: MITOMI at 295 K; buffer, salt and pH not given in the material; scale: ddG kJ/mol vs strongest site
[4] = system: MarA TRR (Escherichia coli); settings: MITOMI at 295 K; buffer, salt and pH not given in the material

Substance	binding signal [3]	further results
mar site GCA		binding signal (relative KA (strongest site = 1)) [1]: 1; binding signal (fold reduced affinity vs TCC) [2]: 1.6
mar site GAG	> 3.3	
mar site GAT	> 3.3	
mar site GAA	> 3.3	
mar site TCC		binding signal (relative KA (strongest site = 1)) [2]: 1
mar site GAC	> 3.3	binding signal (relative KA (strongest site = 1)) [4]: 1
